Test results: the Human Domainome abundance scans (Beltran et al. 2025)

B1: Peripheral plasma membrane protein CASK, residues 488 to 569; numbered along this chain, O14936 (parent)
chain: VRLVQFQKNTDEPMGITLKMNELNHCIVARIMHGGMIHRQGTLHVGDEIREINGISVANQTVEQLQKMLREMRGSITFKIVP

Variants of: B1
Assay: abundance fitness (aPCA) (normalised: wild type 0, dead -1); higher = more abundant; growth selection in yeast, the domain comes from the species named
Details: Homo sapiens

Abundance fitness, by site and new letter:
S56: K 0.02, R -0.052, Q -0.06, A 0.014, N -0.032, T -0.028, E -0.018, L -0.08, D 0.023, P 0.009, G -0.02, H -0.09, W -0.275, I -0.155, V -0.064, M -0.102, F -0.229
G46: I -1.01, W -0.951, K -0.706, C -0.721, M -0.553, N -0.128, A -0.624, T -0.992, S -0.491, Q -0.61, P -0.877, Y -1.02, H -0.471, E -0.293, V -1.04, D -0.22, R -0.669, L -0.638, F -0.75
N53: D -0.27, G -0.188, S -0.183, E -0.327, M -0.357, A -0.308, Y -0.525, R -0.529, C -0.208, H -0.7, W -0.972, P -0.719, L -0.903, V -0.932, I -0.8, T -0.567, K -0.816, Q -0.186
I55: M 0.008, T -0.003, S -0.033, F -0.065, D -0.035, V -0.035, W -0.074, Q 0.035, K -0.001, E 0.026, N -0.113, L -0.041, C 0.026, Y -0.061, G -0.124, H -0.04, P -1.05, A -0.016, R 0.007
N59: A -0.047, M -0.099, E -0.001, S -0.045, I -0.324, Q -0.09, F -0.016, H -0.006, R -0.09, W -0.157, G 0.02, T 0.003, K -0.068, D -0.038, V -0.164, C -0.114, Y -0.1
D47: L -0.878, T -0.788, S -0.711, Y -0.832, K -1.04, R -0.939, V -0.859, H -1.03, C -0.552, I -0.694, A -0.708, N -0.497, E -0.323
T42: R -0.038, Y -0.076, W -0.246, V -0.019, S 0.005
H44: D -0.021, M -0.024, F -0.125, Y -0.075, S -0.007, I -0.188, L -0.142, K 0.007, P -0.917, E 0.02, W -0.281, A -0.006, C -0.012, Q -0.006, T -0.039, N -0.029
I52: V -0.036, R -0.649, L -0.115, T -0.141, N -0.199
R50: P -0.774, A -0.025, Q -0.018, S -0.079, W -0.118, I 0.034, N -0.054, M 0, G -0.315, H -0.148, C 0.038, T -0.028, F -0.211, Y -0.174, K 0.028, E -0.068
V62: Q -0.068, P -0.032, W -0.154, D -0.031, R -0.1, E 0.015, M -0.052, F -0.238, S 0.003, T -0.007, A -0.007, L -0.018, G -0.067, Y -0.172, C -0.044, K -0.114, N 0.01, I -0.025, H -0.131
A58: C -0.042, D -0.037, T -0.017, I 0.02, E 0.017, N -0.076, F -0.087, P -0.327, G -0.01, M -0.038, K 0.053, V -0.025, W -0.104, H -0.075, S -0.035, L -0.052
E51: A -0.096, F -0.441, T -0.301, R -0.264, C -0.34, S 0.102, V -0.714, G -0.048, L -0.442
E63: A -0.048, G -0.027, F -0.023, I -0.108, C -0.08
V45: H 0.016, C -0.128, D -0.178, R -0.169, F -0.457, I -0.046, P -0.059, M -0.025, K -0.207, Q -0.134, E -0.054, S -0.232, Y -0.665, L -0.061, T 0.022, A -0.045, G -0.548, W -0.464, N -0.292
V57: G -0.758, R -0.973, Q -0.8, S -0.158, L -0.126, H -0.818, W -0.854, C -0.046, T 0.027, P -0.041, A -0.061, F -0.42, E -0.965, Y -0.578, D -0.915, M -0.079, N -0.809, I 0.007, K -0.745
G54: F -0.043, M -0.299, W -0.549, E -0.076, C -0.254, L -0.636, V -0.797, N -0.16, T -0.17, Q -0.085, Y -0.056, P -0.911, H -0.076, A -0.191, R -0.193, S -0.071
T61: I -0.642, S -0.029, W -0.853, G -0.015, K -0.054, E -0.037, M -0.294, C -0.129, R -0.095, V -0.329, P -0.048, F -0.457, Q -0.047, A -0.084, L -0.41, H -0.074, N 0.011
L43: F 0.052, N -0.906, C -0.308, K -0.99, V -0.021, Q -1.01, R -0.853, T -0.76, H -0.97, Y -0.733, G -0.985, E -0.774, A -0.722, S -0.755, P -0.658, M -0.021, W -0.662, D -1.04
I49: T -0.576, G -1.05, Q -1, F -0.721, L -0.089, C -0.855, W -1.04, N -0.804, E -0.992, S -0.886, D -0.24, M -0.264, P -0.743, Y -0.998, R -0.858, K -0.823, A -0.856, V 0.001
Q60: E -0.085, M -0.047, L -0.051, P -0.984, F 0.013, W -0.063, T -0.09, S -0.042, D -0.154, N 0.005, A -0.045, R -0.007, H -0.014, Y -0.022, V -0.118, C -0.01
E48: R -0.037, V -0.06, H -0.108, K -0.19, D -0.108, I -0.073, C -0.017, S -0.071, T -0.123, W -0.059, F -0.362, P -1.09, A -0.105, L -0.161, Q -0.069, N -0.326, M -0.158
